Each block holds one sequence with its values, some of them ahead of it.
Tests used:
[1] = target: HLA-C*14:02; test: IEDB peptide-MHC binding, purified MHC/direct/fluorescence; filed as Kd, often an IC50 or EC50 that approximates it; ≥ and ≤ were set here for values at or beyond the usual limits of such assays
[2] = target: HLA-A*03:01; test: IEDB peptide-MHC binding, purified MHC/competitive/fluorescence; filed as Kd, often an IC50 or EC50 that approximates it; ≥ and ≤ were set here for values at or beyond the usual limits of such assays; details: source organism: Robiginitalea biformata HTCC2501
[3] = target: HLA-A*11:01; test: as above; details: source organism: Robiginitalea biformata HTCC2501
[4] = target: HLA-A*31:01; test: as above; details: source organism: Robiginitalea biformata HTCC2501
[5] = target: HLA-B*73:01; test: as above
[6] = target: HLA-A*01:01; test: IEDB peptide-MHC binding, purified MHC/direct/fluorescence; filed as Kd, often an IC50 or EC50 that approximates it; ≥ and ≤ were set here for values at or beyond the usual limits of such assays
[7] = target: HLA-A*02:01; test: as above
[8] = target: HLA-A*03:01; test: as above
[9] = target: HLA-A*11:01; test: as above; details: source organism: Pseudomonas putida
[10] = target: HLA-A*26:01; test: as above
[11] = target: HLA-A*30:01; test: as above; details: source organism: Pseudomonas putida
[12] = target: HLA-A*69:01; test: as above
[13] = target: HLA-B*07:02; test: as above; details: source organism: Pseudomonas putida
[14] = target: HLA-B*08:01; test: as above; details: source organism: Pseudomonas putida
[15] = target: HLA-B*15:01; test: as above
[16] = target: HLA-B*27:05; test: as above; details: source organism: Pseudomonas putida
[17] = target: HLA-B*40:01; test: as above; details: source organism: Pseudomonas putida
[18] = target: HLA-B*58:01; test: as above; details: source organism: Pseudomonas putida
[19] = target: HLA-C*07:02; test: as above
[20] = target: HLA-C*12:03; test: as above; details: source organism: Vaccinia virus
[21] = target: HLA-A*02:01; test: IEDB peptide-MHC binding, purified MHC/competitive/fluorescence; filed as Kd, often an IC50 or EC50 that approximates it; ≥ and ≤ were set here for values at or beyond the usual limits of such assays; details: source organism: Vaccinia virus
[22] = target: HLA-B*08:01; test: IEDB peptide-MHC binding, purified MHC/competitive/radioactivity; filed as Kd, often an IC50 or EC50 that approximates it; ≥ and ≤ were set here for values at or beyond the usual limits of such assays; details: source organism: Vaccinia virus WR
[23] = target: HLA-A*02:03; test: IEDB peptide-MHC binding, purified MHC/direct/fluorescence; filed as Kd, often an IC50 or EC50 that approximates it; ≥ and ≤ were set here for values at or beyond the usual limits of such assays
[24] = target: HLA-A*02:11; test: as above
[25] = target: HLA-A*02:12; test: as above
[26] = target: HLA-A*02:19; test: as above
[27] = target: HLA-A*24:03; test: as above; details: source organism: Yersinia pestis CA88-4125
[28] = target: HLA-B*18:01; test: as above
[29] = target: HLA-B*27:03; test: as above
[30] = target: HLA-B*39:01; test: as above; details: source organism: Yersinia pestis CA88-4125
[31] = target: HLA-B*46:01; test: as above
[32] = target: HLA-B*51:01; test: as above
[33] = target: HLA-B*57:01; test: as above
[34] = target: HLA-C*15:02; test: as above; details: source organism: Homo sapiens
[35] = target: HLA-A*01:01; test: IEDB peptide-MHC binding, purified MHC/competitive/fluorescence; filed as Kd, often an IC50 or EC50 that approximates it; ≥ and ≤ were set here for values at or beyond the usual limits of such assays; details: source organism: Homo sapiens
[36] = target: HLA-A*29:02; test: as above; details: source organism: Homo sapiens
[37] = target: HLA-A*26:02; test: IEDB peptide-MHC binding, purified MHC/direct/fluorescence; filed as Kd, often an IC50 or EC50 that approximates it; ≥ and ≤ were set here for values at or beyond the usual limits of such assays
[38] = target: HLA-C*03:03; test: as above; details: source organism: Mycobacterium tuberculosis C
[39] = target: HLA-B*46:01; test: IEDB peptide-MHC binding, purified MHC/competitive/fluorescence; filed as Kd, often an IC50 or EC50 that approximates it; ≥ and ≤ were set here for values at or beyond the usual limits of such assays; details: source organism: Mycobacterium tuberculosis C
[40] = target: HLA-A*80:01; test: IEDB peptide-MHC binding, purified MHC/direct/fluorescence; filed as Kd, often an IC50 or EC50 that approximates it; ≥ and ≤ were set here for values at or beyond the usual limits of such assays; details: source organism: West Nile virus
[41] = target: HLA-A*02:16; test: as above; details: source organism: Vibrio vulnificus YJ016
[42] = target: HLA-A*29:02; test: as above; details: source organism: Vibrio vulnificus YJ016
[43] = target: HLA-B*07:02; test: IEDB peptide-MHC binding, purified MHC/competitive/fluorescence; filed as Kd, often an IC50 or EC50 that approximates it; ≥ and ≤ were set here for values at or beyond the usual limits of such assays; details: source organism: Influenza A virus (A/Memphis/1/1978(H1N1))
[44] = source organism: Pseudomonas putida
[45] = source organism: Yersinia pestis CA88-4125
[46] = source organism: West Nile virus
[47] = source organism: Vibrio vulnificus YJ016

Sequence: ATPENAAAL
Kd ([1]; source organism: Mycobacterium tuberculosis variant bovis BCG str. Pasteur 1173P2): 0.177 µM

Kd [2]: 6.78 µM
Kd [3]: 2.38 µM
Kd [4]: ≥ 20 µM
Sequence: PLAKGLFHK

Sequence: VVAANRSAF
Kd ([1]; source organism: Mycobacterium tuberculosis CDC1551): 0.103 µM

Sequence: YRAKVKPWA
Kd ([5]; source organism: Francisella tularensis subsp. tularensis FSC198): 4.5 µM

Kd [6, 44]: ≥ 20 µM
Kd [7, 44]: ≥ 20 µM
Kd [8, 44]: 0.246 µM
Kd [9]: 0.0548 µM
Kd [10, 44]: ≥ 20 µM
Kd [11]: 0.045 µM
Kd [12, 44]: ≥ 20 µM
Kd [13]: ≥ 20 µM
Kd [14]: ≥ 20 µM
Kd [15, 44]: ≥ 20 µM
Kd [16]: 7.53 µM
Kd [17]: ≥ 20 µM
Kd [18]: ≥ 20 µM
Kd [5, 44]: ≥ 20 µM
Sequence: RVWRGEQGK

Sequence: LLYAHINAL
Kd ([19]; source organism: Vaccinia virus): 0.216 µM
Kd [20]: 0.222 µM
Kd [21]: 0.0016 µM
Kd [22]: 0.00137 µM

Sequence: LPEAYQWHI
Kd [23, 45]: ≥ 20 µM
Kd [24, 45]: ≥ 20 µM
Kd [25, 45]: ≥ 20 µM
Kd [26, 45]: ≥ 20 µM
Kd [8, 45]: ≥ 20 µM
Kd [27]: ≥ 20 µM
Kd [10, 45]: ≥ 20 µM
Kd [15, 45]: ≥ 20 µM
Kd [28, 45]: ≥ 20 µM
Kd [29, 45]: ≥ 20 µM
Kd [30]: ≥ 20 µM
Kd [31, 45]: ≥ 20 µM
Kd [32, 45]: 0.484 µM
Kd [33, 45]: ≥ 20 µM

Kd ([1]; source organism: Homo sapiens): 0.516 µM
Kd [34]: 4.72 µM
Kd [35]: 0.0574 µM
Kd [36]: 0.0002 µM
Sequence: HMMAVTLFY

Sequence: YVFYDGPPF
Kd ([37]; source organism: Mycobacterium tuberculosis str. Haarlem): 0.011 µM
Kd [38]: 0.01 µM
Kd ([19]; source organism: Mycobacterium tuberculosis C): 0.021 µM
Kd [39]: 0.125 µM

Sequence: LTKEEFTRY
Kd [6, 46]: 1.15 µM
Kd [10, 46]: 1.08 µM
Kd [37, 46]: 0.28 µM
Kd [40]: 0.544 µM

Sequence: MKYVWPPIM
Kd [7, 47]: ≥ 20 µM
Kd [23, 47]: ≥ 20 µM
Kd [24, 47]: ≥ 20 µM
Kd [25, 47]: ≥ 20 µM
Kd [41]: ≥ 20 µM
Kd [26, 47]: ≥ 20 µM
Kd [8, 47]: ≥ 20 µM
Kd [10, 47]: ≥ 20 µM
Kd [42]: ≥ 20 µM
Kd [12, 47]: ≥ 20 µM
Kd [15, 47]: ≥ 20 µM
Kd [28, 47]: ≥ 20 µM
Kd [29, 47]: ≥ 20 µM
Kd [31, 47]: ≥ 20 µM
Kd [32, 47]: ≥ 20 µM
Kd [33, 47]: ≥ 20 µM

Sequence: DPLVVAASI
Kd [43]: ≥ 20 µM

— the Immune Epitope Database (IEDB)
